Positions count from the first letter of the chain named.
T1: hBCMA ECD hFc (ACRO, BC7-H5254) (human, UniProt Q02223 1-54)
T1 chain: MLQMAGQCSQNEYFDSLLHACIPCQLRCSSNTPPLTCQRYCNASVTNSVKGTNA

T2: hu (human) BCMA ECD His (ACRO, BCA-H522y) (human, UniProt Q02223 1-54)
T2 chain: T1 chain

B1: R0317 (C11D5.3 BCMA mouse monoclonal antibody) (antibody, V domains shown)
VH: QIQLVQSGPELKKPGETVKISCKASGYTFTDYSINWVKRAPGKGLKWMGWINTETREPAYAYDFRGRFAFSLETSASTAYLQINNLKYEDTATYFCALDYSYAMDYWGQGTSVTVSS
VL: DIVLTQSPASLAMSLGKRATISCRASESVSVIGAHLIHWYQQKPGQPPKLLIYLASNLETGVPARFSGSGSGTDFTLTIDPVEEDDVAIYSCLQSRIFPRTFGGGTKLEIK
B2: hu VH2-VL1 (antibody, V domains shown)
VH: QVQLVQSGAEVKKPGASVKMSCKASGYTFTSYVVHWVRQAPGQGLEWIGYIIPYNDDTKYNEKFKGRVTLTSDKSTSTAYMELSSLRSEDTAVYYCARWDYDDGYFDYWGQGTTVTVSS
VL: DVVMTQSPLSLPVTLGQPASISCRSSQSLLHSNGNTYLHWYLQKPGQSPQLLIYKVSNRFSGVPDRFSGSGSGTDFTLKISRVEAEDVGVYFCSQITHIPFTFGQGTKLEIK
B3: 5F4 (antibody, V domains shown)
VH: EVQLQQSGPELIKPGASVKMSCKASAGKWERWAHWVKQKPGQGLEWIGYKPAYWTSAYNEKFKGKATLTSDKSSSTAYMELSSLTSEDSAVYYCATLDYDDGYFDYWGQGTTLTVSS
VL: EIVLTQSPGTLSLSPGERATLSCRASQSVSSSYLAWYQQKPGQAPRLLIYQASSDATGIPDRFSGSGSGTDFTLTISRLEPEDFAVYYCQQYGYPPSYTFGQGTKVEIK
B4: 5E2 (antibody, V domains shown)
VH: EVQLQQSGPELIKPGASVKMSCKASGYTFTSYVVHWVKQKPGQGLEWIGYIIPYNDDTKYNEKFKGKATLTSDKSSSTAYMELSSLTSEDSAVYYCARWDYDDGYFDYWGQGTTLTVSS
VL: DVVMTQTPLSLPVTLGDQASISCRSSQSLLHSNGNTYLHWYLQKPGQSPKLLIYKVSNRFSGVPDRFSGSGSGTDFTLKISRVEAEDLGVYFCSQITHIPFTFGSGTKLEIKR
B5: hu VH1-VL1 (antibody, V domains shown)
VH: B2 VH with R67K, V68A, T76S
VL: B2 VL
B6: hu VH1-VL3 (antibody, V domains shown)
VH: B2 VH with R67K, V68A, T76S
VL: DIVMTQTPLSLSVTPGQPASISCKSSQSLLHSNGNTYLHWYLQKPGQPPQLLIYKVSNRFSGVPDRFSGSGSGTDFTLKISRVEAEDVGVYYCSQITHIPFTFGQGTKLEIKR
B7: hu VH1-VL2 (antibody, V domains shown)
VH: B2 VH with R67K, V68A, T76S
VL: B2 VL with S7T, P12S, L15P, R24K

Columns and labels:
[1] = biological target: T1, hBCMA ECD hFc (ACRO, BC7-H5254); assay: ELISA
[2] = biological target: T1, hBCMA ECD hFc (ACRO, BC7-H5254); assay: BLI (Fortebio)
[3] = biological target: T2, hu (human) BCMA ECD His (ACRO, …); assay: ELISA

| Binder | EC50 [1] | Kd [2] | EC50 [3] |
| --- | --- | --- | --- |
| B1 | 0.32 nM | < 0.001 nM | – |
| B2 | – | – | 0.0506 nM |
| B3 | 0.305 nM | < 0.001 nM | – |
| B4 | 0.279 nM | < 0.001 nM | 0.054 nM |
| B5 | – | – | 0.0474 nM |
| B6 | – | – | 0.0545 nM |
| B7 | – | – | 0.0206 nM |

Reference: patent US20230039487A1 (published 2023)
